We go through three molecules from patent US20030060416A1 (IDUN PHARMACEUTICALS, published 2003).

Common to all, as to assay: GST pull-down of 35S-labeled protein on glutathione-Sepharose beads
The target of assay [1] is T1, glutathione S-transferase (GST) control (UniProt P08515 1-218 = GST).
T1 construct: Control protein immobilized on glutathione-Sepharose beads
The method, then: (§1) After 36 h, extracts are prepared and immunoprecipitated with a monoclonal antibody to the Flag-epitope. The immunoprecipitates (upper panel) and the corresponding cellular lysates (lower panel) are analyzed by SDS-PAGE and immunoblotted with a HRP-conjugated T7-antibody. IP, immunoprecipitates. (C) Mutations in the BH3 domain of Blk abrogate its ability to interact with Bcl-2 and Bcl-xL. 35S-labeled wild type Blk, mutant Blk-DG59 (M1) or mutant Blk-DG59-D60 (M2) (lane 1, input) are precipitated with GST (lane 2), GST-Bcl-2 (lane 3), or GST-Bcl-xL (lane 4) and then analyzed by SDS-PAGE and Coomassie staining to detect the GST fusion proteins (lower panel) and autoradiography to detect the interacting labeled proteins (upper panel). (D) Mutations in the BH3 domain of Blk abrogate its proapoptotic activity. MCF-7 cells are transfected with the indicated plasmids and then assayed for apoptosis as in FIG. 3A.
(§2) Blk binds Bcl-2 and Bcl-xL. All the proapoptotic Bcl-2 family members can heterodimerize with Bcl-2 and Bcl-xL. To determine whether Blk can also bind to Bcl-2 or Bcl-xL, in vivo and in vitro binding studies are performed. Bcl-2 and Bcl-xL are constructed as GST fusion proteins inpGEX-4T-2 and pGEX-2T, respectively, by placing the coding sequence of Bcl-2 or Bcl-XL in frame C-terminal to the GST protein (Pharmacia). GST fusion proteins are expressed in E. coli and purified by affinity chromatography on a glutathione-coupled substrateGlutathione Sepharose 4B (Pharmacia). ³⁵S-labeled (Blk, Bik, Bax) proteins are expressed in vitro using a coupled transcription/translation system in rabbit reticulocyte lysate (TNT Kit; Promega). In vitro protein-protein interactions are carried out according to Boyd et. al. (supra). Briefly, labeled proteins are precleared by mixing with glutathione-coupled Sepharose beads, which are then removed by centrifugation. The supernatants are incubated with GST-Bcl-2, GST-Bcl-xL or GST immobilized on glutathione-coupled Sepharose beads for 2 h at 4° C. After extensive washing, proteins are recovered by boiling the beads in SDS-sample buffer and analyzed on 12% SDS-PAGE.
(§3) ³⁵S-labeled Blk, Bik or Bax are precipitated with glutathione S-transferase (GST), GST-Bcl-2 or GST-Bcl-xL fusion proteins immobilized on glutathione-Sepharose beads (FIG. 5A).

In assay [2] the target is T2, GST-Bcl-xL fusion protein (human, UniProt P08515 1-218 = GST; Q07817 1-233).
T2 construct: Expressed in E. coli and immobilized on Glutathione Sepharose 4B beads
T2 sequence (P08515 1-218, tags or fused parts left off): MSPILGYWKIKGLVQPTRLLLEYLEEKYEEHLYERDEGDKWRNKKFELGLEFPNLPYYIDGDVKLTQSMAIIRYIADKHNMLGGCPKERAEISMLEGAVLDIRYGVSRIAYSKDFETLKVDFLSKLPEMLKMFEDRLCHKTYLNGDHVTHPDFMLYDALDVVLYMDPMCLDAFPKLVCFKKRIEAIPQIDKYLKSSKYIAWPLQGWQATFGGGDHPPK
The method, then: as §1, §2, §3

For a further assay, the target named is T3, GST-Bcl-2 fusion protein (human, UniProt P08515 1-218 = GST; P10415 1-239).
T3 construct: Expressed in E. coli and immobilized on Glutathione Sepharose 4B beads
T3 sequence (P08515 1-218, tags or fused parts left off): as above
The protocol:
as §1, §2, §3

T1 sequence (P08515 whole entry): as the sequence (P08515 1-218, tags or fused parts left off) above

B1: murine Blk (Bik-like killer), wild type (other)
chain: MSEARLMARDVIKTVPHDQVPQPPVASETPSMKEPVRDVDLMECVEGRNQVALRLACIGDEMDLCLRSPRLVQLPGIAIHRLAVTYSRTGVRGIFRSLIRSLTNLRENIWSWRVLTPGAWVSPDQDPGQLFPMVLLVFLLLGGAWYLQLQ
modifications: 35S-labeled (in vitro translated in rabbit reticulocyte lysate) in the GST pull-down
notes: Protein of 150 amino acids; Used 35S-labeled from in vitro transcription/translation in the pull-downs, and expressed from pRSC-LacZ in the apoptosis assays; also called 35S-labeled Blk; wild type Blk
Take B1: the binding result in assay [1] is listed as “no binding”.

B2: mutant Blk-DG59-D60 (Gly59 and Asp60 deleted) (other)
chain: MSEARLMARDVIKTVPHDQVPQPPVASETPSMKEPVRDVDLMECVEGRNQVALRLACIEMDLCLRSPRLVQLPGIAIHRLAVTYSRTGVRGIFRSLIRSLTNLRENIWSWRVLTPGAWVSPDQDPGQLFPMVLLVFLLLGGAWYLQLQ
modifications: 35S-labeled (in vitro translated) in the GST pull-down
notes: Cloned in pFLAG CMV-2 and the pRSC vector; also called M2
Consider B2, for which the binding result (in assay [2]; with GST-Bcl-2 fusion protein) was “no binding” each time.

B3: Bik (other, human, UniProt Q13323 1-160, looked up)
chain: MSEVRPLSRDILMETLLYEQLLEPPTMEVLGMTDSEEDLDPMEDFDSLECMEGSDALALRLACIGDEMDVSLRAPRLAQLSEVAMHSLGLAFIYDQTEDIRDVLRSFMDGFTTLKENIMRFWRSPNPGSWVSCEQVLLALLLLLALLLPLLSGGLHLLLK
modifications: 35S-labeled (in vitro translated)
notes: also called human Bik/Nbk; 35S-labeled Bik
For B3, the binding result in assay [1] is recorded as “no binding”.
